Test results: US6740496B1, “Determination of biologically active forms of proteolytic enzymes” (Synapse B.V., priority 1999, dated 2004)

What was measured:
Assay type in all cases: biochemical
human thrombin [1] = molecular target: T1, human thrombin (Homo sapiens, UniProt P00734); assay: Hydrolysis of OA-AR-AMC by free thrombin (AMC fluorescence); settings: 5.5 μM OA-AR-AMC, 85 nM human thrombin, 25° C., pH 8.0, Michaelis-Menten fit
T1 construct: The formation of thrombin in clotting blood or plasma arises from prothrombin by an enzymatic controlled reaction
Experimental: (§1) The assay was carried out at 25° C. in 96 well Microfluor W “U” bottomed micro titre plates (Dynex, London, UK) in 10 mM HEPES, 5 mM CaCl2, 0.02% sodium azide, pH 8.0). In case of -∘- the vessel contained 5.5 μM OA-AR-AMC (Ala-Arg-AMC coupled to ovalbumin) and 85 nM human thrombin and in case of -∇-5.5 μM OA-AR-AMC and 65 μM human α2M-IIa. The black symbols (-●- and -▾-) were obtained by fitting assuming that the substrate is hydrolysed by thrombin according to Michaelis-Menten kinetics. […] For hydrolysis by α2M-IIa the already derived S0 and Km were found and kcat=0.008 s^−1.

human α2M-IIa [2] = molecular target: T2, human α2M-IIa (Homo sapiens, UniProt P00734); assay: Hydrolysis of OA-AR-AMC by thrombin inactivated by α2M (AMC fluorescence)
T2 construct: The formation of thrombin in clotting blood or plasma arises from prothrombin by an enzymatic controlled reaction
Experimental: as §1

human thrombin [3] = molecular target: T1, human thrombin; assay: Amidolytic activity of human thrombin towards OA-S2288 (pNA release, OD 405 nm); settings: Michaelis-Menten fit
Experimental: (§2) The amidolytic activity of human thrombin and human α2M-IIa towards OA-S2288 was measured. The reaction mixtures contained 22 μM OA-S2288, 50 nM thrombin or α2M-IIa and 175 mM NaCl, 50 mM Tris-HCl, 2 mg/ml ovalbumin (pH 7.9).
(§3) In FIG. 2 the amount of free p-nitroanilide (pNA) formed, expressed as milli optical density at 405 nm, is plotted against the time. The reaction temperature was 37° C. The grey curves are the measured data, whereas the black line is obtained by fitting, assuming that product formation occurs according to Michaelis-Menten kinetics.
(§4) Product formation in time can be described as: E.kcat. St/(Km+St), in which St is the substrate concentration in time (i.e. the substrate concentration originally present (S0) minus the formed product or split substrate, and E is the enzyme that splits the substrate, either thrombin or α2M-IIa.

human α2M-IIa [4] = molecular target: T2, human α2M-IIa; assay: Amidolytic activity of human α2M-IIa towards OA-S2288 (pNA release, OD 405 nm)
Experimental: as §2, §3, §4

Row | Substance | Km (human thrombin [1]) | kcat (human thrombin [1]) | kcat (human α2M-IIa [2]; 5.5 μM OA-AR-AMC, 65 μM human α2M-IIa, 25° C., pH 8.0, Michaelis-Menten fit) | Km (human α2M-IIa [2]; hydrolysis by α2M-IIa, the already derived S0 and Km) | hydrolysis by thrombin entrapped in α2M (in words) (human α2M-IIa [2]; ovalbumin coupled to Ala-Arg-AMC) | Km (human thrombin [3]; 22 μM OA-S2288, 50 nM thrombin, pH 7.9, 37° C.) | kcat (human thrombin [3]; E is thrombin, 22 μM OA-S2288, 50 nM enzyme, 37° C.) | kcat (human α2M-IIa [4]; E is α2M-IIa, 22 μM OA-S2288, 50 nM enzyme, 37° C., Michaelis-Menten fit) | hydrolysis by α2M-IIa (in words) (human α2M-IIa [4]; ovalbumin coupled to S2288)
1 | ovalbumin coupled to H-alanyl-L-arginine-7-amido-4-methyl-coumarin [OA-AR-AMC] | 1.2 µM | 3.3 s⁻¹ | 0.008 s⁻¹ | 1.2 µM | will not be split anymore by thrombin entrapped in the cavity of α2M | – | – | – | –
2 | ovalbumin coupled to H-D-isoleucyl-L-prolyl-L-arginine-p-nitroanilide.2HCl [OA-S2288] | – | – | – | – | – | 1.47 µM | 0.31 s⁻¹ | 0.002 s⁻¹ | loses its ability to be hydrolysed by α2M-IIa, but not by thrombin
